The target of experiment [1] is GST-F28F8.5 (C. elegans) (UniProt H9G301). Put plainly: pull-down; GST-F28F8.5 or GST adsorbed in equal amounts on glutathione-agarose, incubated with 35S-MDT-6 from rabbit reticulocyte lysate; bound fraction resolved by PAGE, autoradiography, excised bands counted by scintillation.
Experiment [2] shares this target. Put plainly: pull-down; GST-F28F8.5 or GST adsorbed in equal amounts on glutathione-agarose, incubated with His6-MDT-30-FLAG purified on a nickel column; Western blot with anti-FLAG M2, densitometry (ImageJ). (Immunoblotting shows a protein as a band on a membrane.)

The source of these data is paper PMC5464003.

B1: 35S-Methionine-MDT-6 (natural protein)
chain: MMPRMGPPAAARQDNPLHVSFRNPQWPPNFINKDNVLDYFCNQANAFYEMNSCNQQIRMQNIVNRTVEECLRTMPGIQYVLWYSQPPLFIICKQRRNNVTNVSPIAYYYVINGSVHQAPDMYSLVQSRLLGALEPLRNAFGEVTNYSRYNTAKGYYWEFKNKPNVKKREEEKKEDEEEKLEDRSTNFQKTRTMMLLNQLFSEMPAEDALEREEKEEVEEEEEETLKTEEPTTSTDEPKFAEPTARTTSKQ
modifications: 35S-methionine label
B1: the fold enrichment over GST alone with GST-F28F8.5 (C. elegans) [1] was determined as 7.7 fold.

B2: His6-MDT-30-FLAG (natural protein)
chain: MNPNQPPNYPPGNPNQPPPFPPTPYYPMYQAGMPMPYIPQSPQYPQPGPPGGPPPFMGIQIKQEPMWSQENRYGMQAGPSGMPGMPPSSHPYGYPPMHGMPPGMPQGMPPMMDPNMPDFSSPPMHHPTTSLLAQHLSSAPLPPAPPQQQSHLSQLLQQPTTYSTATNPHAAPTQTIARRPDNEARNAQLQEQELAARQQQQQEYMLQQHQQQQQNRAGQLQAEQAFANPPTVSIPPQTGHPPQQTSASSQQRAQETMAQQTEPQSHIRESPQKETNLEKYSTGELCLYGRELVNDLNVKTSYLSTILKKVMERKPLNQGENPNDLADQCKNALQRMSDIRQIIEKRREPTWKRMTGEDYIELMLDDSELKKPMDEERQKRRAELEQRFAIVISKTPPVEGHIWYQGKWISEELHKKYMQFEANKEIVKNLAAELKALAWKIDVTSPGHLKKVDQTKISKKKTDDQV
Molecule B2 registered a fold enrichment over GST alone with GST-F28F8.5 (C. elegans) [2] of 2.5 fold.
